Laboratory results taken from doi:10.1101/2023.04.06.535920 (bioRxiv, 2023).

Biological target: T1, Fc-tagged recombinant mouse FGL1 full length (mouse, UniProt Q71KU9 23-314)
T1 sequence (looked up): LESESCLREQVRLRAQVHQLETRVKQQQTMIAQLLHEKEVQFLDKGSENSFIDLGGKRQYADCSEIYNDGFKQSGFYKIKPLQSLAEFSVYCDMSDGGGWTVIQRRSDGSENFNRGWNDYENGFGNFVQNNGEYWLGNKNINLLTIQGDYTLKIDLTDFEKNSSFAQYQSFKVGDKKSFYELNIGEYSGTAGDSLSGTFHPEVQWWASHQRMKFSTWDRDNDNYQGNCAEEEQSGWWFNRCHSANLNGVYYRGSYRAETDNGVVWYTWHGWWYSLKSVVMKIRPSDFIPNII
Experiment: pull-down

B1: hBMP6 (ligand, human, UniProt P22004 375-513, looked up)
chain: SASSRRRQQSRNRSTQSQDVARVSSASDYNSSELKTACRKHELYVSFQDLGWQDWIIAPKGYAANYCDGECSFPLNAHMNATNHAIVQTLVHLMNPEYVPKPCCAPTKLNAISVLYFDDNSNVILKKYRNMVVRACGCH
  binding result: binds
